Experimental data reported in patent US20240376151A1, “STAPLED PEPTIDES AND METHODS THEREOF” (FOG PHARMACEUTICALS, INC., priority 2022, published 2024).
Numbered stars: 1 amine (or outer) side, 2 acyl side, 3 side chain; on linkers, the order of the positions; unused ones are H or OH. Bridge positions count the residues as written; N and C are the ends. Ends that are not written are not given here. Phenylene(1,4-NHCOCH2)2 = O=C(C[*:1])Nc1ccc(NC(=O)C[*:2])cc1

Experiments:
MDM2 = molecular target: T1, MDM2 (Homo sapiens, UniProt Q00987); assay: Naive Library Presenter Screening (phage, NGS), MDM2; type: binding; settings: for interaction data, BLANK: Blank = Media only
T1 construct: made in house
T1 sequence (Q00987 25-109): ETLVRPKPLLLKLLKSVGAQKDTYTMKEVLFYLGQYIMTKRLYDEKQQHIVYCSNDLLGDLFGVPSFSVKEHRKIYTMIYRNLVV

CHIP = molecular target: T2, CHIP (Homo sapiens, UniProt Q9UNE7); assay: Naive Library Presenter Screening (phage, NGS), CHIP; type: binding; settings: CHIP clusters (C83, C84); for interaction data, BLANK: Blank = Media only; for interaction data at Target Concentration 10: target concentration 10 nM; for interaction data at Target Concentration 30: target concentration 30 nM; for interaction data at Target Concentration 100: target concentration 100 nM; for interaction data at Target Concentration 300: target concentration 300 nM; for interaction data at Target Concentration 1000: target concentration 1000 nM
T2 construct: N-term truncated CHIP (also known as STUB1, Uniprot ID: Q9UNE7, residues 23-303); made in house; host or cells: E. coli BL21 CodonPlus
T2 sequence (Q9UNE7 23-303): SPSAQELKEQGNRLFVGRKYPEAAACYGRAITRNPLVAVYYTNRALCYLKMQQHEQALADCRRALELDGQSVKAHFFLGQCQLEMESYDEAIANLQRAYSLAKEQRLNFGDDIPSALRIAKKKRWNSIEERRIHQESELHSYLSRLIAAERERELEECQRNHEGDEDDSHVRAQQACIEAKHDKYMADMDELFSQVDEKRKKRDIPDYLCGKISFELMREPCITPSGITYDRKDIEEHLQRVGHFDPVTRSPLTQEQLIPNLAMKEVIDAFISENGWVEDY
Procedure: To conduct phage library screening, previously described procedures were utilized in accordance with the present disclosure.
Next-generation sequencing was performed as described in accordance with the present disclosure.
Hit ID and Clustering is performed according to a described procedure in accordance with the present disclosure.

[1] = MDM2 clusters (C82, C85), first column
[2] = MDM2 clusters (C82, C85), second column
[3] = MDM2 clusters (C82, C85), target concentration 10 nM
[4] = MDM2 clusters (C82, C85), target concentration 30 nM
[5] = MDM2 clusters (C82, C85), target concentration 100 nM
[6] = MDM2 clusters (C82, C85), target concentration 300 nM
[7] = MDM2 clusters (C82, C85), target concentration 1000 nM, first column
[8] = MDM2 clusters (C82, C85), target concentration 1000 nM, second column
[9] = MDM2 target concentration 10 nM
[10] = MDM2 target concentration 30 nM
[11] = MDM2 target concentration 100 nM
[12] = MDM2 target concentration 300 nM
[13] = MDM2 target concentration 1000 nM, first column
[14] = MDM2 target concentration 1000 nM, second column

interaction data, BLANK (MDM2; [1]) | interaction data, BLANK (MDM2; [2]) | interaction data at Target Concentration 10 (MDM2; [3]) | interaction data at Target Concentration 30 (MDM2; [4]) | interaction data at Target Concentration 100 (MDM2; [5]) | interaction data at Target Concentration 300 (MDM2; [6]) | interaction data at Target Concentration 1000 (MDM2; [7]) | interaction data at Target Concentration 1000 (MDM2; [8]) | Sequence | other results
0 | 0 | 0 | 0 | 15 | 37 | 23 | 48 | DPAQEDCHAAAFWCIWD (DPAQEDCHAAAFWCIWD-NH2; linker 7-14 via Phenylene(1,4-NHCOCH2)2 (inferred)) | –
0 | 0 | 0 | 5 | 18 | 17 | 23 | 39 | DPAYEDCFFAAWNCMMV (linker 7-14 via Phenylene(1,4-NHCOCH2)2 (inferred)) | –
0 | 0 | 49 | 104 | 206 | 192 | 185 | 176 | DPAMSNCFMAAWECLIQ (linker 7-14 via Phenylene(1,4-NHCOCH2)2 (inferred); not fully specified (C-terminus)) | –
– | – | – | – | – | – | – | – | DPASEACFQAAWDCVSW (DPASEACFQAAWDCVSW-NH2; linker 7-14 via Phenylene(1,4-NHCOCH2)2 (inferred)) | interaction data at Target Concentration 10 (MDM2; [9]): 2; interaction data at Target Concentration 30 (MDM2; [10]): 57; interaction data at Target Concentration 100 (MDM2; [11]): 241; interaction data at Target Concentration 300 (MDM2; [12]): 559; interaction data at Target Concentration 1000 (MDM2; [13]): 336; interaction data at Target Concentration 1000 (MDM2; [14]): 447
– | – | – | – | – | – | – | – | DPANHACFQAAWDCQFF (linker 7-14 via Phenylene(1,4-NHCOCH2)2 (inferred)) | interaction data at Target Concentration 10 (MDM2; [9]): 11; interaction data at Target Concentration 30 (MDM2; [10]): 154; interaction data at Target Concentration 100 (MDM2; [11]): 643; interaction data at Target Concentration 300 (MDM2; [12]): 1045; interaction data at Target Concentration 1000 (MDM2; [13]): 776; interaction data at Target Concentration 1000 (MDM2; [14]): 1088
0 | 0 | 0 | 0 | 24 | 36 | 24 | 32 | DPALMQCTEAAFWCYWE (linker 7-14 via Phenylene(1,4-NHCOCH2)2 (inferred); not fully specified (C-terminus)) | –
0 | 0 | 0 | 0 | 25 | 37 | 34 | 29 | DPAAQECFRAAWRCMQD (linker 7-14 via Phenylene(1,4-NHCOCH2)2 (inferred)) | –
0 | 0 | 0 | 0 | 25 | 17 | 25 | 57 | DPALFSCDSAAFSCYWY (linker 7-14 via Phenylene(1,4-NHCOCH2)2 (inferred); not fully specified (C-terminus)) | –
0 | 0 | 1 | 15 | 170 | 133 | 176 | 188 | DPAETDCSQAAFWCYWQ (linker 7-14 via Phenylene(1,4-NHCOCH2)2 (inferred)) | –
– | – | – | – | – | – | – | – | DPAYASCFSAAWDCQFW (linker 7-14 via Phenylene(1,4-NHCOCH2)2 (inferred)) | interaction data at Target Concentration 10 (MDM2; [9]): 0; interaction data at Target Concentration 30 (MDM2; [10]): 0; interaction data at Target Concentration 100 (MDM2; [11]): 19; interaction data at Target Concentration 300 (MDM2; [12]): 21; interaction data at Target Concentration 1000 (MDM2; [13]): 13; interaction data at Target Concentration 1000 (MDM2; [14]): 38
0 | 0 | 0 | 37 | 188 | 209 | 160 | 215 | DPADRDCFSAAWACVIR (linker 7-14 via Phenylene(1,4-NHCOCH2)2 (inferred)) | –
0 | 0 | 0 | 131 | 203 | 226 | 185 | 315 | DPAINTCQDAAFWCYWS (linker 7-14 via Phenylene(1,4-NHCOCH2)2 (inferred)) | –
– | – | – | – | – | – | – | – | DPAQYNCYFAANICTVD (DPAQYNCYFAANICTVD-NH2; linker 7-14 via Phenylene(1,4-NHCOCH2)2 (inferred)) | interaction data, BLANK (CHIP; first column): 0; interaction data, BLANK (CHIP; second column): 0; interaction data at Target Concentration 10 (CHIP): 0; interaction data at Target Concentration 30 (CHIP): 0; interaction data at Target Concentration 100 (CHIP): 0; interaction data at Target Concentration 300 (CHIP): 48; interaction data at Target Concentration 1000 (CHIP; first column): 79; interaction data at Target Concentration 1000 (CHIP; second column): 17
– | – | – | – | – | – | – | – | DPAFEVCQFAAATCSSN (linker 7-14 via Phenylene(1,4-NHCOCH2)2 (inferred)) | interaction data, BLANK (CHIP; first column): 0; interaction data, BLANK (CHIP; second column): 0; interaction data at Target Concentration 10 (CHIP): 0; interaction data at Target Concentration 30 (CHIP): 0; interaction data at Target Concentration 100 (CHIP): 8; interaction data at Target Concentration 300 (CHIP): 10; interaction data at Target Concentration 1000 (CHIP; first column): 6; interaction data at Target Concentration 1000 (CHIP; second column): 30
– | – | – | – | – | – | – | – | DPAMWHCQYAAIMCNAN (DPAMWHCQYAAIMCNAN-NH2; linker 7-14 via Phenylene(1,4-NHCOCH2)2 (inferred)) | interaction data, BLANK (CHIP; first column): 0; interaction data, BLANK (CHIP; second column): 0; interaction data at Target Concentration 10 (CHIP): 0; interaction data at Target Concentration 30 (CHIP): 0; interaction data at Target Concentration 100 (CHIP): 0; interaction data at Target Concentration 300 (CHIP): 15; interaction data at Target Concentration 1000 (CHIP; first column): 7; interaction data at Target Concentration 1000 (CHIP; second column): 29

Sequence | interaction data, BLANK (MDM2; [1]) | interaction data, BLANK (MDM2; [2]) | interaction data at Target Concentration 10 (MDM2; [3]) | interaction data at Target Concentration 30 (MDM2; [4]) | interaction data at Target Concentration 100 (MDM2; [5]) | interaction data at Target Concentration 300 (MDM2; [6]) | interaction data at Target Concentration 1000 (MDM2; [7]) | interaction data at Target Concentration 1000 (MDM2; [8]) | other results
DPAVTECFQAAWRCMVM (linker 7-14 via Phenylene(1,4-NHCOCH2)2 (inferred); not fully specified (C-terminus)) | 0 | 0 | 0 | 77 | 184 | 276 | 269 | 268 | –
